Read-outs that look alike come from different tables or passages of the source.
B2: PINCH2 LIM1 domain (PINCH2 6-68), His tag removed (domain or fragment, human, UniProt Q7Z4I7-3 6-68, looked up)
chain: ANAVCQRCQARFSPAERIVNSNGELYHEHCFVCAQCFRPFPEGLFYEFEGRKYCEHDFQMLFA
B3: ILK ankyrin repeat domain (ILK 1-174, from thrombin-cleaved GST-ILK 1-192) (domain or fragment, human, UniProt Q13418 1-174, looked up)
chain: MDDIFTQCREGNAVAVRLWLDNTENDLNQGDDHGFSPLHWACREGRSAVVEMLIMRGARINVMNRGDDTPLHLAASHGHRDIVQKLLQYKADINAVNEHGNVPLHYACFWGQDQVAEDLVANGALVSICNKYGEMPVDKAKAPLRELLRERAEKMGQNLNRIPYKDTFWKGTTR

Legend:
[1] = molecular target: B3; test: pull-down
[2] = molecular target: B3; test: pull-down; remark: listed apart in the source
[3] = molecular target: B2; test: crystal structure
[4] = molecular target: T1, ILK ankyrin repeat domain W110A (human, UniProt Q13418 1-174, W110A); test: pull-down
T1 sequence (looked up): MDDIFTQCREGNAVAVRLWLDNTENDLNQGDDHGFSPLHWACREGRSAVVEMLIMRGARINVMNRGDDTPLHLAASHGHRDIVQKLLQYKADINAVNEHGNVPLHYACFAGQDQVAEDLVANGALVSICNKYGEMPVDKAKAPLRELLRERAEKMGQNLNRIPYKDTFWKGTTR

[5] = molecular target: B3; test: pull-down; remark: listed apart in the source

B1: soluble PINCH1 LIM1 domain, His tag removed (domain or fragment)
chain: ASATCERCKGGFAPAEKIVNSNGELYHEQCFVCAQCFQQFPEGLFYEFEGRKYCEHDFQMLFA
IC50 [1]: 2900 nM

B2
IC50 [2]: 4400 nM | IC50 [1]: 2300 nM

B3
stoichiometry N [3]: 1

B4: His-tagged PINCH2 LIM1 (PINCH2 6-68) (domain or fragment, human, UniProt Q7Z4I7-3 6-68, looked up)
chain: ANAVCQRCQARFSPAERIVNSNGELYHEHCFVCAQCFRPFPEGLFYEFEGRKYCEHDFQMLFA
binding result [4]: binds

B5: His-tagged PINCH2 LIM1 R12A (domain or fragment, human, UniProt Q7Z4I7-3 6-68, looked up)
chain: ANAVCQACQARFSPAERIVNSNGELYHEHCFVCAQCFRPFPEGLFYEFEGRKYCEHDFQMLFA
binding result [5]: binds
